Data: PMC12410180, “An anti-CEA affibody showing high-definition staining in human pancreatic cancer tissue sections and selective tumor targeting in vivo” (Translational Oncology, 2025)

Molecular target: T1, human CEA His6-tag (Acro BioSystems, cat. hCE5-H5226) (Homo sapiens, UniProt P06731)
T1 construct: human carcinoembryonic antigen (CEA, CEACAM5), recombinant, His6-tagged; Glycosylated; also called CEACAM5; carcinoembryonic antigen-related adhesion molecule 5; source: bought: Acro BioSystems, produced in HEK293 cells
T1 sequence (P06731 35-685): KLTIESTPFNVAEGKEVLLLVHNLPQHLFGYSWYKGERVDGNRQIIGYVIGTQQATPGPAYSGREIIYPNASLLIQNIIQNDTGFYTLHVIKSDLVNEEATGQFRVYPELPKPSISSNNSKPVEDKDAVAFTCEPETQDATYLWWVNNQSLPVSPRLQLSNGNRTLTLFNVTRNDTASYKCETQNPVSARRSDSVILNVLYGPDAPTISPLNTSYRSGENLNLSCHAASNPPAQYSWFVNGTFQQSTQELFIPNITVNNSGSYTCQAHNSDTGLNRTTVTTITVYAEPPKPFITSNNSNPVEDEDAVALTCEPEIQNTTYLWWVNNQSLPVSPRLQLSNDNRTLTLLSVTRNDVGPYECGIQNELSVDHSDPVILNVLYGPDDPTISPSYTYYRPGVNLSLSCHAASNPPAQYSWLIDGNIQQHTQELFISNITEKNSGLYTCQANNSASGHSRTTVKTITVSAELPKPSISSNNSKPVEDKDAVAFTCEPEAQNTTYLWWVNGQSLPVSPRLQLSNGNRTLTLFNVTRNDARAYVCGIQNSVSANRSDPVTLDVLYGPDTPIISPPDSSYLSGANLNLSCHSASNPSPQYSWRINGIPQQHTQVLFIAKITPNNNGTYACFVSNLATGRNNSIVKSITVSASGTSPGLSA
Assay: SPR; MFE-23 scFv dilution series (1-100 nM, 3-fold) over a freshly immobilized surface with CEA (2500 RU); 25 °C, PBST pH 7.4; Langmuir 1:1 fit
Conditions: both partners purified

Kd: ~15 nM
B1: anti-CEA scFv fragment MFE-23 (scFv, V domains shown)
VH: QVKLQQSGAELVRSGTSVKLSCTASGFNIKDSYMHWLRQGPEQGLEWIGWIDPENGDTEYAPKFQGKATFTTDTSSNTAYLQLSSLTSEDTAVYYCNEGTPTGPYYFDYWGQGTTVTVSS
VL: ENVLTQSPAIMSASPGEKVTITCSASSSVSYMHWFQQKPGTSPKLWIYSTSNLASGVPARFSGSGSGTSYSLTISRMEAEDAATYYCQQRSSYPLTFGAGTKLELK
notes: Expressed from pET22b(+) with a PelB signal peptide; also called MFE-23 scFv; scFv MFE-23; source: E. coli BL21(DE3), periplasmic preparation, purified (IMAC)
